B1: NEUROG2 (protein, UniProt Q9H2A3 1-272, looked up)
Neurogenin-2: MFVKSETLELKEEEDVLVLLGSASPALAALTPLSSSADEEEEEEPGASGGARRQRGAEAGQGARGGVAAGAEGCRPARLLGLVHDCKRRPSRARAVSRGAKTAETVQRIKKTRRLKANNRERNRMHNLNAALDALREVLPTFPEDAKLTKIETLRFAHNYIWALTETLRLADHCGGGGGGLPGALFSEAVLLSPGGASAALSSSGDSPSPASTWSCTNSPAPSSSVSSNSTSPYSCTLSPASPAGSDMDYWQPPPPDKHRYAPHLPIARDCI
B2: NEUROD (protein, UniProt Q13562 1-356, looked up)
Neurogenic differentiation …: MTKSYSESGLMGEPQPQGPPSWTDECLSSQDEEHEADKKEDDLETMNAEEDSLRNGGEEEDEDEDLEEEEEEEEEDDDQKPKRRGPKKKKMTKARLERFKLRRMKANARERNRMHGLNAALDNLRKVVPCYSKTQKLSKIETLRLAKNYIWALSEILRSGKSPDLVSFVQTLCKGLSQPTTNLVAGCLQLNPRTFLPEQNQDMPPHLPTASASFPVHPYSYQSPGLPSPPYGTMDSSHVFHVKPPPHAYSAALEPFFESPLTDCTSPSFDGPLSPPLSINGNFSFKHEPSAEFEKNYAFTMHYPAATLAGAQSHGSIFSGTAAPRCEIPIDNIMSFDSHSHHERVMSAQLNAIFHD
B3: NFIL3 (protein, UniProt Q16649 1-462, looked up)
Nuclear factor …: MQLRKMQTVKKEQASLDASSNVDKMMVLNSALTEVSEDSTTGEELLLSEGSVGKNKSSACRRKREFIPDEKKDAMYWEKRRKNNEAAKRSREKRRLNDLVLENKLIALGEENATLKAELLSLKLKFGLISSTAYAQEIQKLSNSTAVYFQDYQTSKSNVSSFVDEHEPSMVSSSCISVIKHSPQSSLSDVSEVSSVEHTQESSVQGSCRSPENKFQIIKQEPMELESYTREPRDDRGSYTASIYQNYMGNSFSGYSHSPPLLQVNRSSSNSPRTSETDDGVVGKSSDGEDEQQVPKGPIHSPVELKHVHATVVKVPEVNSSALPHKLRIKAKAMQIKVEAFDNEFEATQKLSSPIDMTSKRHFELEKHSAPSMVHSSLTPFSVQVTNIQDWSLKSEHWHQKELSGKTQNSFKTGVVEMKDSGYKVSDPENLYLKQGIANLSAEVVSLKRLIATQPISASDSG
B4: NEUROD3 (protein, UniProt Q92886 1-237, looked up)
Neurogenin-1: MPARLETCISDLDCASSSGSDLSGFLTDEEDCARLQQAASASGPPAPARRGAPNISRASEVPGAQDDEQERRRRRGRTRVRSEALLHSLRRSRRVKANDRERNRMHNLNAALDALRSVLPSFPDDTKLTKIETLRFAYNYIWALAETLRLADQGLPGGGARERLLPPQCVPCLPGPPSPASDAESWGSGAAAASPLSDPSSPAASEDFTYRPGDPVFSFPSLPKDLLHTTPCFIPYH
B5: MYSM1 (protein, UniProt Q5VVJ2 1-828, looked up)
Deubiquitinase MYSM1: MAAEEADVDIEGDVVAAAGAQPGSGENTASVLQKDHYLDSSWRTENGLIPWTLDNTISEENRAVIEKMLLEEEYYLSKKSQPEKVWLDQKEDDKKYMKSLQKTAKIMVHSPTKPASYSVKWTIEEKELFEQGLAKFGRRWTKISKLIGSRTVLQVKSYARQYFKNKVKCGLDKETPNQKTGHNLQVKNEDKGTKAWTPSCLRGRADPNLNAVKIEKLSDDEEVDITDEVDELSSQTPQKNSSSDLLLDFPNSKMHETNQGEFITSDSQEALFSKSSRGCLQNEKQDETLSSSEITLWTEKQSNGDKKSIELNDQKFNELIKNCNKHDGRGIIVDARQLPSPEPCEIQKNLNDNEMLFHSCQMVEESHEEEELKPPEQEIEIDRNIIQEEEKQAIPEFFEGRQAKTPERYLKIRNYILDQWEICKPKYLNKTSVRPGLKNCGDVNCIGRIHTYLELIGAINFGCEQAVYNRPQTVDKVRIRDRKDAVEAYQLAQRLQSMRTRRRRVRDPWGNWCDAKDLEGQTFEHLSAEELAKRREEEKGRPVKSLKVPRPTKSSFDPFQLIPCNFFSEEKQEPFQVKVASEALLIMDLHAHVSMAEVIGLLGGRYSEVDKVVEVCAAEPCNSLSTGLQCEMDPVSQTQASETLAVRGFSVIGWYHSHPAFDPNPSLRDIDTQAKYQSYFSRGGAKFIGMIVSPYNRNNPLPYSQITCLVISEEISPDGSYRLPYKFEVQQMLEEPQWGLVFEKTRWIIEKYRLSHSSVPMDKIFRRDSDLTCLQKLLECMRKTLSKVTNCFMAEEFLTEIENLFLSNYKSNQENGVTEENCTKELLM
B6: NEUROD4 (protein, UniProt Q9HD90 1-331, looked up)
Neurogenic differentiation …: MSKTFVKSKEMGELVNTPSWMDKGLGSQNEVKEEESRPGTYGMLSSLTEEHDSIEEEEEEEEDGEKPKRRGPKKKKMTKARLERFRARRVKANARERTRMHGLNDALDNLRRVMPCYSKTQKLSKIETLRLARNYIWALSEVLETGQTPEGKGFVEMLCKGLSQPTSNLVAGCLQLGPQSVLLEKHEDKSPICDSAISVHNFNYQSPGLPSPPYGHMETHLLHLKPQVFKSLGESSFGSHLPDCSTPPYEGPLTPPLSISGNFSLKQDGSPDLEKSYSFMPHYPSSSLSSGHVHSTPFQAGTPRYDVPIDMSYDSYPHHGIGTQLNTVFTE
B7: ATF2 (protein, UniProt P16951 1-487, looked up)
Cyclic AMP-dependent …: MSDDKPFLCTAPGCGQRFTNEDHLAVHKHKHEMTLKFGPARNDSVIVADQTPTPTRFLKNCEEVGLFNELASPFENEFKKASEDDIKKMPLDLSPLATPIIRSKIEEPSVVETTHQDSPLPHPESTTSDEKEVPLAQTAQPTSAIVRPASLQVPNVLLTSSDSSVIIQQAVPSPTSSTVITQAPSSNRPIVPVPGPFPLLLHLPNGQTMPVAIPASITSSNVHVPAAVPLVRPVTMVPSVPGIPGPSSPQPVQSEAKMRLKAALTQQHPPVTNGDTVKGHGSGLVRTQSEESRPQSLQQPATSTTETPASPAHTTPQTQNTSGRRRRAANEDPDEKRRKFLERNRAAASRCRQKRKVWVQSLEKKAEDLSSLNGQLQSEVTLLRNEVAQLKQLLLAHKDCPVTAMQKKSGYHTADKDDSSEDLSVPSSPHTEAIQHSSVSTSNGVSSTSKAEAVATSVLTQMADQSTEPALSQIVMAPPSQAQPSGS
B8: NFATC1 (protein, UniProt O95644 1-943, looked up)
Nuclear factor of activated …: MPSTSFPVPSKFPLGPAAAVFGRGETLGPAPRAGGTMKSAEEEHYGYASSNVSPALPLPTAHSTLPAPCHNLQTSTPGIIPPADHPSGYGAALDGGPAGYFLSSGHTRPDGAPALESPRIEITSCLGLYHNNNQFFHDVEVEDVLPSSKRSPSTATLSLPSLEAYRDPSCLSPASSLSSRSCNSEASSYESNYSYPYASPQTSPWQSPCVSPKTTDPEEGFPRGLGACTLLGSPRHSPSTSPRASVTEESWLGARSSRPASPCNKRKYSLNGRQPPYSPHHSPTPSPHGSPRVSVTDDSWLGNTTQYTSSAIVAAINALTTDSSLDLGDGVPVKSRKTTLEQPPSVALKVEPVGEDLGSPPPPADFAPEDYSSFQHIRKGGFCDQYLAVPQHPYQWAKPKPLSPTSYMSPTLPALDWQLPSHSGPYELRIEVQPKSHHRAHYETEGSRGAVKASAGGHPIVQLHGYLENEPLMLQLFIGTADDRLLRPHAFYQVHRITGKTVSTTSHEAILSNTKVLEIPLLPENSMRAVIDCAGILKLRNSDIELRKGETDIGRKNTRVRLVFRVHVPQPSGRTLSLQVASNPIECSQRSAQELPLVEKQSTDSYPVVGGKKMVLSGHNFLQDSKVIFVEKAPDGHHVWEMEAKTDRDLCKPNSLVVEIPPFRNQRITSPVHVSFYVCNGKRKRSQYQRFTYLPANVPIIKTEPTDDYEPAPTCGPVSQGLSPLPRPYYSQQLAMPPDPSSCLVAGFPPCPQRSTLMPAAPGVSPKLHDLSPAAYTKGVASPGHCHLGLPQPAGEAPAVQDVPRPVATHPGSPGQPPPALLPQQVSAPPSSSCPPGLEHSLCPSSPSPPLPPATQEPTCLQPCSPACPPATGRPQHLPSTVRRDESPTAGPRLLPEVHEDGSPNLAPIPVTVKREPEELDQLYLDDVNEIIRNDLSSTSTHS
B9: NFATX (protein, UniProt Q12968 2-1075, looked up)
Nuclear factor of activated …: TTANCGAHDELDFKLVFGEDGAPAPPPPGSRPADLEPDDCASIYIFNVDPPPSTLTTPLCLPHHGLPSHSSVLSPSFQLQSHKNYEGTCEIPESKYSPLGGPKPFECPSIQITSISPNCHQELDAHEDDLQINDPEREFLERPSRDHLYLPLEPSYRESSLSPSPASSISSRSWFSDASSCESLSHIYDDVDSELNEAAARFTLGSPLTSPGGSPGGCPGEETWHQQYGLGHSLSPRQSPCHSPRSSVTDENWLSPRPASGPSSRPTSPCGKRRHSSAEVCYAGSLSPHHSPVPSPGHSPRGSVTEDTWLNASVHGGSGLGPAVFPFQYCVETDIPLKTRKTSEDQAAILPGKLELCSDDQGSLSPARETSIDDGLGSQYPLKKDSCGDQFLSVPSPFTWSKPKPGHTPIFRTSSLPPLDWPLPAHFGQCELKIEVQPKTHHRAHYETEGSRGAVKASTGGHPVVKLLGYNEKPINLQMFIGTADDRYLRPHAFYQVHRITGKTVATASQEIIIASTKVLEIPLLPENNMSASIDCAGILKLRNSDIELRKGETDIGRKNTRVRLVFRVHIPQPSGKVLSLQIASIPVECSQRSAQELPHIEKYSINSCSVNGGHEMVVTGSNFLPESKIIFLEKGQDGRPQWEVEGKIIREKCQGAHIVLEVPPYHNPAVTAAVQVHFYLCNGKRKKSQSQRFTYTPVLMKQEHREEIDLSSVPSLPVPHPAQTQRPSSDSGCSHDSVLSGQRSLICSIPQTYASMVTSSHLPQLQCRDESVSKEQHMIPSPIVHQPFQVTPTPPVGSSYQPMQTNVVYNGPTCLPINAASSQEFDSVLFQQDATLSGLVNLGCQPLSSIPFHSSNSGSTGHLLAHTPHSVHTLPHLQSMGYHCSNTGQRSLSSPVADQITGQPSSQLQPITYGPSHSGSATTASPAASHPLASSPLSGPPSPQLQPMPYQSPSSGTASSPSPATRMHSGQHSTQAQSTGQGGLSAPSSLICHSLCDPASFPPDGATVSIKPEPEDREPNFATIGLQDITLDDVNEIIGRDMSQISVSQGAGVSRQAPLPSPESLDLGRSDGL
B10: NEUROG3 (protein, UniProt Q9Y4Z2 1-214, looked up)
Neurogenin-3: MTPQPSGAPTVQVTRETERSFPRASEDEVTCPTSAPPSPTRTRGNCAEAEEGGCRGAPRKLRARRGGRSRPKSELALSKQRRSRRKKANDRERNRMHNLNSALDALRGVLPTFPDDAKLTKIETLRFAHNYIWALTQTLRIADHSLYALEPPAPHCGELGSPGGSPGDWGSLYSPVSQAGSLSPAASLEERPGLLGATFSACLSPGSLAFSDFL

system: HEK293FT cells transfected with TF library; test: Screening of TF condensates based on fluorescent puncta; type: cell-based; conditions: Figure 1B numerical data; TF library screen, one value per transcriptional factor
Outline: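 HEK293FT cells were reverse-transfected with Flag- or GAL4-tagged TF plasmids (1.6 μg/ml, PEI). After 60 h, cells were cultured 12 h with or without glucose, then fixed and immunostained with anti-Flag or anti-GAL4 and Alexa 488 secondaries. Fluorescent puncta were imaged over fifty random fields per well by high-content imaging.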

| Molecule | Z score of condensed fraction |
| --- | --- |
| B1 | -1.044 |
| B2 | 0.06185 |
| B3 | -0.6996 |
| B4 | -0.2856 |
| B5 | -0.7244 |
| B6 | 0.614 |
| B7 | 2.014 |
| B8 | -0.245 |
| B9 | -0.5752 |
| B10 | 1.376 |

— PMC11574045, “A cofactor-induced repressive type of transcription factor condensation can be induced by synthetic peptides to suppress tumorigenesis” (The EMBO Journal, 2024)
